Measured values reported in the supplement of paper PMC12042874.
± gives the uncertainty stated by the source.

Assay: amyloid nucleation score (Sup35N fusion, yeast selection) (log enrichment); library NNK1; higher = more nucleation; inactive = no reads after selection
Method in brief: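 On medium lacking adenine and uracil, psi-negative yeast expressing peptides of 20 random codons fused to Sup35N were grown 7 days at 30°C after a 24-hour induction with 100 μM copper sulfate. Illumina sequencing of input and output plasmid inserts gave the reads, and sequences under 100 input reads were excluded. The nucleation score is the DiMSum log enrichment of output over input reads, centred on the mode score of non-aggregating sequences.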
With LFGLNWYNNGGRKSGCSDWA the amyloid nucleation score was -0.503 ± 0.98. In the case of SDESKMCRMGYYLPALAIAW, the amyloid nucleation score is reported as -0.173 ± 0.82. TIGFTHYCCSFKS gave an amyloid nucleation score of -1.23 ± 0.52. Work on YEFLIWVCPTALRRVVSSVV yielded an amyloid nucleation score of 0.189 ± 0.74. With QDVKSMCQPFMILMVVSGGL the amyloid nucleation score was -0.101 ± 0.65. IHGTMRGYWHMLFQELNIGV gave an amyloid nucleation score of -0.152 ± 0.54. TMAFVKLLNGSGNLEILKFS gave an amyloid nucleation score of 0.785 ± 0.44. Work on IWNSVARFRYSSMGFVVSAG yielded an amyloid nucleation score of 0.898 ± 0.93. With AMNFWRKILIFSELVYG the amyloid nucleation score was 2.19 ± 0.5. With LVALPMWIF the amyloid nucleation score was 0.402 ± 0.41. Substance SWIRNRWHYTQ has an amyloid nucleation score of -0.141 ± 0.72. RDVAMESRVSGYVGVCGSYR showed an amyloid nucleation score of -0.71 ± 1.2. Work on FPRLGCARTFSDHSMLACTI yielded an amyloid nucleation score of 0.098 ± 0.59. DSTRTDSLYVSACHLLYLAE gave an amyloid nucleation score of 0.178 ± 0.64. For YSWLVYNHNSDPGGSVCWSC, the amyloid nucleation score was 5.61 ± 0.065. Work on RLSSSIYAFSDIHCGMSEAQ yielded an amyloid nucleation score of 0.168 ± 0.26. MRDLK gave an amyloid nucleation score of -0.405 ± 0.53. DDGGLSFGSGNSQSSKKIWL gave an amyloid nucleation score of 0.853 ± 0.42. In the case of SGTIYWLTDQSDFILLVMRD, the amyloid nucleation score is reported as -1.26 ± 0.47. In the case of VYRTNLSINSTFIWTHELRS, the amyloid nucleation score is reported as 0.525 ± 0.18. GNVRYAPYVVGIKLIRANSC gave an amyloid nucleation score of -0.381 ± 0.81. In the case of WFTDGT, the amyloid nucleation score is reported as “inactive”. Substance SNDTLS has an amyloid nucleation score of 0.265 ± 0.39. WYPAANLRLVALIKGVSAVT showed an amyloid nucleation score of -2.23 ± 2.4. In the case of FYLHNICVRR, the amyloid nucleation score is reported as -0.249 ± 0.52. For FIITWILTKNMKLGEVYSIS, the amyloid nucleation score was -0.132 ± 0.72. For KEHRPWGCW, the amyloid nucleation score was “inactive”. YVPGTNILLIIGEICQVPTD gave an amyloid nucleation score of 2.18 ± 0.22. With MLWTCKDNLCKDMTHVWSIY the amyloid nucleation score was “inactive”. With LDSFTYKS the amyloid nucleation score was 1.99 ± 0.49. TNYQRIQHA gave an amyloid nucleation score of -0.903 ± 2.4. Substance TVDKTYFFYIVDCNVDKPGD has an amyloid nucleation score of 1.08 ± 0.59. In the case of ECYLV, the amyloid nucleation score is reported as -0.663 ± 0.8. For DYRIEVSLSVVYCFGLNMRN, the amyloid nucleation score was 2.38 ± 0.082. With ASLLMLLVGRKICLAQVNKG the amyloid nucleation score was 0.412 ± 0.51. In the case of SNEYYPSLHYRVSVGKGLGR, the amyloid nucleation score is reported as -0.154 ± 1.2. Work on YHTNTGDDPSCPRPSTSYSG yielded an amyloid nucleation score of 1.98 ± 0.51. ALLIPINTLGDN showed an amyloid nucleation score of 0.605 ± 0.7. RTMHVRFDIRKVALKIFKFY gave an amyloid nucleation score of 1.3 ± 0.4. LYRDSLKLF showed an amyloid nucleation score of -0.725 ± 0.49. Work on VYSRSWPGFLKWLLASIFF yielded an amyloid nucleation score of 0.694 ± 1.2. With RLSGGLADHNIFNFRIT the amyloid nucleation score was 0.805 ± 0.76. Work on TYGKIMVN yielded an amyloid nucleation score of -0.418 ± 1.5. Work on KTSVL yielded an amyloid nucleation score of -0.616 ± 0.39. GPFHRWNL showed an amyloid nucleation score of -0.129 ± 1.6. For DMSFRYLSGSVNLCVVHLRR, the amyloid nucleation score was -0.244 ± 1.1. With MMGGKDCQFYCSIPLFRVMM the amyloid nucleation score was 2.2 ± 0.16. In the case of ESQSRGLMIVNGDFKD, the amyloid nucleation score is reported as 0.018 ± 0.37. In the case of HLYTVTHGSLNDKTGRP, the amyloid nucleation score is reported as 0.31 ± 0.97. Substance CLSELGFAVPTSWTICILCT has an amyloid nucleation score of 0.656 ± 0.59. With YASTSMWVP the amyloid nucleation score was -0.401 ± 0.35. For MYGNES, the amyloid nucleation score was -0.02 ± 0.4. For WFWLIRMYMSFYVVAFVGSG, the amyloid nucleation score was 1.31 ± 0.74. LSRFRLFSYMYVLHKCNMGM gave an amyloid nucleation score of -0.777 ± 1.2. PSLLWAFTLS gave an amyloid nucleation score of 0.5 ± 0.42. With VVCFMPVLMAVQMGCSHWNY the amyloid nucleation score was 3.55 ± 0.063. In the case of HCNIMIDSTSLFNGGLVFYN, the amyloid nucleation score is reported as 4.83 ± 0.059. In the case of SAVGYISLLYNSWAKYTICN, the amyloid nucleation score is reported as -0.562 ± 0.69. In the case of WSGIIELC, the amyloid nucleation score is reported as 1.74 ± 0.78. Work on HIYSF yielded an amyloid nucleation score of 1.26 ± 0.12. Work on STDSLLRWIKPERDGYRFLW yielded an amyloid nucleation score of -0.479 ± 0.45. For KSRGRKSSGDFPIRGD, the amyloid nucleation score was 4.84 ± 0.062. SILIRLIISTINCCVNNVAF gave an amyloid nucleation score of 5.43 ± 0.083. LFYPFTLHWVCCSWCLYEVR gave an amyloid nucleation score of 6.927 ± 0.056. Work on STGPNLKVLVSSKS yielded an amyloid nucleation score of -1.66 ± 0.69. In the case of SRMWMFFDCIISIINMAEDT, the amyloid nucleation score is reported as 7.449 ± 0.051. TDWARTRSQRHVLHDSPAGL gave an amyloid nucleation score of -0.452 ± 1.4. In the case of NISRAVHTRMGGYMSPTWLK, the amyloid nucleation score is reported as 0.833 ± 0.5. Substance HWVGFLRYTSIKDDHQFGSK has an amyloid nucleation score of -0.323 ± 0.51. Substance GYGSHNEAGKLGVGGEVCYG has an amyloid nucleation score of 3.85 ± 0.065. Substance SVGDVVYGEFLIAKQSAACV has an amyloid nucleation score of 0.115 ± 0.44. For MSGVRYLCCL, the amyloid nucleation score was 0.087 ± 0.58. CNKWRYSFVCIPGISRQ gave an amyloid nucleation score of 2.22 ± 0.091. STNIGWAMINLKRYPVLRDA showed an amyloid nucleation score of -0.18 ± 0.29. VECLKV gave an amyloid nucleation score of 0.387 ± 0.52. GVLILCVSAKSRSAAVKQLS gave an amyloid nucleation score of 0.755 ± 0.68. For HVMTFEVSFRTGCKDVINWV, the amyloid nucleation score was 1.03 ± 0.18. In the case of PLAVVVYDNHRRMGHHVRHG, the amyloid nucleation score is reported as 0.807 ± 0.63. In the case of TSYNIMFQ, the amyloid nucleation score is reported as -0.584 ± 1.2. YDRVLNLSDSWCTNAAPWWG gave an amyloid nucleation score of 0.394 ± 0.43. Work on LISNRPMW yielded an amyloid nucleation score of 0.29 ± 0.48. LGHGLDRMKLRTECNCTVVD showed an amyloid nucleation score of -0.503 ± 0.3. In the case of DCTEH, the amyloid nucleation score is reported as “inactive”. Substance MSIVCFCW has an amyloid nucleation score of 8.155 ± 0.047. FDATFVMLRSRAFFKICKER showed an amyloid nucleation score of 0.751 ± 0.27. In the case of YWYFYISDRVKDNSCSNWSL, the amyloid nucleation score is reported as -1.03 ± 0.47. FAAVPYISVLIRRLCLPYRT gave an amyloid nucleation score of 1.07 ± 0.7. With MYFSIRDCCSYAFNSFDIYG the amyloid nucleation score was 5.508 ± 0.047. TRLSRERINRDWEREGCLTP gave an amyloid nucleation score of 0.798 ± 0.81. In the case of ATRVPPFMEVLSPYH, the amyloid nucleation score is reported as “inactive”. With CFRELPYSLYNC the amyloid nucleation score was -0.666 ± 0.42. With GLNLNRFWRLGATFILYLQT the amyloid nucleation score was 1.19 ± 0.54. Substance GMVFF has an amyloid nucleation score of 0.643 ± 0.58. For SKWYSDQT, the amyloid nucleation score was “inactive”. Substance SWDLGREYSGHRMTCLVWLV has an amyloid nucleation score of -0.403 ± 0.68. PRTLPVLFNLSLKGSSHTYF showed an amyloid nucleation score of 4.52 ± 0.064. Work on VDSRSWTNLMWSRVAKWLMG yielded an amyloid nucleation score of 0.155 ± 0.51. In the case of AGVCRNNSPLIHTFNF, the amyloid nucleation score is reported as 0.728 ± 0.64. For TLNKARSDYFLKRSSE, the amyloid nucleation score was -0.025 ± 1. CTLSYSCFLVVLSFYGQSSF gave an amyloid nucleation score of 0.366 ± 0.24. LGLYSVCC gave an amyloid nucleation score of -0.219 ± 0.3. SCKFMIYNSVGAGSLGHVNR showed an amyloid nucleation score of 4.69 ± 0.094. Substance HCVRQTSWMLAENLAWEVWL has an amyloid nucleation score of 1.1 ± 0.58. Work on ISTPKDISSPKSFWNIFFGT yielded an amyloid nucleation score of 4.65 ± 0.069. Substance LDDLPTILGVSEHSRSFVKV has an amyloid nucleation score of -0.324 ± 0.61. In the case of NFTTVAVLRFNDNGR, the amyloid nucleation score is reported as 4.43 ± 0.066. For SLEDLWTRVERIRASEPVLG, the amyloid nucleation score was -0.293 ± 0.92. Work on VATPSSCVDSQAKTRMTGTL yielded an amyloid nucleation score of -0.112 ± 0.44. ALPYVYRTLVNNLLIPSSGL gave an amyloid nucleation score of 1.02 ± 0.67. With CTFSSWRESGFWTSLIHGYL the amyloid nucleation score was -0.218 ± 0.36. IVVVGD gave an amyloid nucleation score of -1.63 ± 1.3. NMQLAPTGPNTVPISYDLFP showed an amyloid nucleation score of -1.46 ± 2.4. With TRNVMFINVALHFSNLVGWC the amyloid nucleation score was 4.21 ± 0.12. HTRRTEFHAGYYRINTAYAV showed an amyloid nucleation score of 0.268 ± 0.7. YFMTHRGLCRCISLSYNFKI gave an amyloid nucleation score of -0.957 ± 0.98. LIFSNNWFYYTFYDS showed an amyloid nucleation score of 5.85 ± 0.087. Substance YAVCRLANSSGSRHVFLCHT has an amyloid nucleation score of 0.527 ± 0.31. In the case of WTRLLD, the amyloid nucleation score is reported as “inactive”. IRLIKIPVKFKFVSTMCSGC showed an amyloid nucleation score of -0.1 ± 0.93. With RRMGKSFKAYTDGVQRKILS the amyloid nucleation score was 0.593 ± 0.68. For FLNTNEKIKMQPIFPFFLLL, the amyloid nucleation score was -0.495 ± 0.65. With LNVGVLGGRLLSGALVNSTM the amyloid nucleation score was 0.396 ± 0.65. In the case of TIGASKFMICWTDSFHLQSQ, the amyloid nucleation score is reported as 3 ± 0.12. Work on RVLSVIVNILIARFT yielded an amyloid nucleation score of -0.028 ± 0.25. FIAIDLS gave an amyloid nucleation score of 1.31 ± 0.45. Work on KVNLTSCSY yielded an amyloid nucleation score of -0.059 ± 0.42. NRAECSFVCTEYVNICK gave an amyloid nucleation score of -0.313 ± 0.43. TCLISCRLPDKGHGSVT showed an amyloid nucleation score of -0.069 ± 0.44.
